Measured values taken from the DeepSol protein solubility set.

test: soluble on expression in E. coli; label from the status in PepcDB or PDB records

Row | Sequence | soluble on expression in E. coli
1 | MIENIMSLQKGLPEEISALEEDLAFTSRQIEARKKIADERQKLRERLNSVIHDCKEKIKSFKEKQTLARNNKEYDALSKQIEYEEKEIAQAEIQLQDISHAEHHAQELQKKGRELIAENRYDEISEEMMPDDVLQQQMEDLGQQVRQKKEELESIVVETAEEVAQLKAVLSEQRSVVAQQAKRLLDKYDHLKSGSIQNAVVKLDRQACSGCNTRVPTNRHTLIVQGGFYVCESCGRIVVHERLFDEAAASGQQ | not soluble
2 | MIFAKGHGTQNDFVLLPDVDAELVLTAARVAALCDRRKGLGADGVLRVTTAGAAQAVGVLDSLPEGVRVTDWYMDYRNADGSAAQMCGNGVRVFAHYLRASGLEVRDEFVVGSLAGPRPVTCHHVEAAYADVSVDMGKANRLGAGEAVVGGRRFHGLAVDVGNPHLACVDSQLTVDGLAALDVGAPVSFDGAQFPDGVNVEVLTAPVDGAVWMRVHERGVGETRSCGTGTVAAAVAALAAVGSPTGTLTVHVPGGEVVVTVTDATSFLRGPSVLVARGDLADDWWNAMG | not soluble
3 | MIFVLDVGNTNAVLGVFEEGELRQHWRMETDRHKTEDEYGMLVKQLLEHEGLSFEDVKGIIVSSVVPPIMFALERMCEKYFKIKPLVVGPGIKTGLNIKYENPREVGADRIVNAVAGIHLYGSPLIIVDFGTATTYCYINEEKHYMGGVITPGIMISAEALYSRAAKLPRIEITKPSSVVGKNTVSAMQSGILYGYVGQVEGIVKRMKEEAKQEPKVIATGGLAKLISEESNVIDVVDPFLTLKGLYMLYERNANLQHEKGEHHHHHH | soluble
4 | MIGCLCIHGFTGSPEEVAPLADYLRERTDWMIETPTLPGHGSELRLKGITYDQWIAAAEQAFLALHHRCSVVYVIGFSMGGVIAVYLAEKYPVAKLVLLSAAFYYVNPRQLWRDIREMFANGWKGAREHPLFLRYRNKMMATPFSAVREFRKLVRDVRPRLPRVAAPALIVQGEKDGIVPLKSAYYLYEQIGSAEKKLLLLPNSFHHVCHSIDRHVLFAEVETFLRAAHAHHCKSPHNMV | not soluble
5 | MIGGGPGGLYFAYLWKKRHPEDQVDLFEQNPADATWGFGVVFSDQALEFLRADDPETVDAIAPHMESWENITLNLQGGSVAIDGVGFSSIGRLELLQFLQQRALDVGVTPRFDTQIHGIDQLNGHDLIVAADGLNSLVRRAYEGDFGTSLSYSSNKFVWYGTSKRFDTLSQTFVKTDRGAFNAHHYRYSPTMSTFLVECDHATWQAYGFAYKDVEQSKGVCEEVFADTLGGHCLVSNKSVWRNFPWVWNEHWSFKNMVLIGDALHSAHFSIGSGTRLAIEDAIALVKALESDAHLNTALLRYQAARKPVVQKLVDAARTSASWYENFAQHMQLDLMDFAYSYITRSGRIDDSRLRAMSPAFMARYEAAKNGGDAASEATALEHHHHHH | soluble
6 | MIGNFTIVDGHVHTFSSEEVSLKVLKSFNKIYNIEFENPGTGTIEDVLNNMKNEGIDYTVMANFAPVKILHANNKWTLEEARKHPNLIPLVSFHPDMDVSFTSLLEEYISDGAKGIKLHPMAQGFDPRDERLKGLYEFCNDIAFPIVFHCGRVANARLNSFSDVETLEPLIAMYENISFVLTHMADGNVKDVLRLSRTYKNVYFDTSIVISGYPPIRETNKPSWLDDSIPEGVINEIGAHRVVFGSDYPWGSPAWDLKRFMSMKLDDEEKKNILGENAMKLFLNTAYN | soluble
7 | MIGRLRGIIIEKQPPLVLIEVGGVGYEVHMPMTCFYELPEAGQEAIVFTHFVVREDAQLLYGFNNKQERTLFKELIKTNGVGPKLALAILSGMSAQQFVNAVEREEVGALVKLPGIGKKTAERLIVEMKDRFKGLHGDLFTPAADLVLTSPASPATDDAEQEAVAALVALGYKPQEASRMVSKIARPDASSETLIREALRAAL | soluble
8 | MIILIRYGPIDVTYCRMKRGFMYMVAIIDWYSRYIVGFELSNTLDKTFVIEAIQKAIKRYGKPEIMNSDQGSQFTSDDYINLLKNNGIKISMDGKGRALDNQRIERFFRSYKWEKLYLEECETVQQLRQITKEYVEHYNHRRPHQSLDYKTPAEYYFGGYDQLLAVV | not soluble
9 | MIIRIKHYGEVKIEDSKNLLLNLIENRIGIDNICNGKGTCGKCKVRFRQGVPEATSADLRYLSVEELEEGVRLACQVKPQKGMEIDVTLSNSFDRKNTVLEHHHHHH | not soluble
10 | MIKFNIRGENVEVTDAIRAYVEDKIGKLDKYFNDGHEVTAYVNLKVYSEKRAKVEVTLPAKNVTLRAEDTSQDMYSSIDFVEEKLERQIRKYKTRMNRKPRNAVPTGQAFGDEFAPLEKADEVAEDHVDIVRTKHVALKPMDAEEAVLQMDMLGHDFYVFTDADSNGTHVVYRRTDGRYGLIETELEHHHHHH | soluble
11 | MIKGGGGKSSGYSADLMVCFPSRAHLSLPSKSISSPSSSFNRRQNAPHHRRSISKLSSSGGGVRQNRGGGREVVEEPTSPKVTCAGQIKVRSSKRDGGGKNWQSLMAEIEKIHRSKSESKFFGIKRDVMGFLTCLRDFDFRCFGAFPPVDIISDDEEEDEEEEEEDEEEDEDESSGTVFSKWLMVLHEKQNNEECVDGKENVFSDVETAVPPPNALLLMRCRSAPVKNWSEEKKEETEEGDNRVKQSGEEEEEEKDRVGNKKDLRSLMEEEKKMNLVVMNYDTNYYKLSNDIAKETWVVGGIQDPLFRSRSWKK | not soluble
12 | MIKKYTCKNGVRIVMENIPTVRSVAIGIWIHAGSRNENEKNNGISHFLEHMFFKGTETRSAREIAESFDSIGGQVNAFTSKEYTCYYAKVLDEHAKYALDVLADMFFNSTFDEEELKKEKNVVCEEIKMYEDAPDDIVHDMLTKATYETHPLGYPILGTEETLNTFTGDTLRQYIKDHYTPENVVVSIAGNIDEAFLQTVEQYFGSYEGTTNREQVHSPIFHFNKVARKKETEQAHLCLGYKGLQMGHEDIYNLIVLNNVLGGSMSSRLFQEVREQRGLAYSVFSYHSSYEDTGMLTLYGGTGSQQLDTLYETMQETLETLKNTGITEKELINSKEQLKGNLMLSLESTNSRMSRNGKNELLLRKHRSLDEIIESVNTVTKENVDELIRNMFTDEFSAALISPDGKLPKGIKL | not soluble
13 | MIKLERETKPDYLSDEKVFELTESFKATKKSVWNHDHIKIPLLRSSHSKCAYCECPLTSASNYMEVEHFEDKNHYPEKVVLWENLLPSCKKCNGAKGQHDVIGDPIINPYVEDPKNHLSMRLYRFRAKSDKGQSTIEVTQLNSSDRSVFCRYEIGEKISEMIDLGFERWNEYLVRNNTRSKNKLVNLVQGLLNECQPTSSYSASTATNLLTDPKFIELMSLMREADIVSEELDDLILKASTLVLDYVLEHHHHHH | not soluble
14 | MIKLKNVTKTYKMGEEIIYALKNVNLNIKEGEFVSIMGPSGSGKSTMLNIIGCLDKPTEGEVYIDNIKTNDLDDDELTKIRRDKIGFVFQQFNLIPLLTALENVELPLIFKYRGAMSGEERRKRALECLKMAELEERFANHKPNQLSGGQQQRVAIARALANNPPIILADEPTGALDSKTGEKIMQLLKKLNEEDGKTVVVVTHDINVARFGERIIYLKDGEVEREEKLRGFDDR | soluble
15 | MIKLVAFDLDGTIGNTLPMCIQAFKKATQPYIGHELSDEEMVHTFGLNEEGMIGCVVDEPYRQQALNDFYVIYKELHQEMCPTPFEGIRELIALLKQKGIIVALITGKGINSCDITLKQFNMKDSFAKVITGNAERNIKSEALKELLHDYHLAANEIVYVGDALSDITECRKANVMCLSAAWSIPQNEVTALENSNPKNVFYSISSLFKYL | not soluble
16 | MIKMIVVLRLGHRPERDKRVTTHVALTARAFGADGIIIASEEDEKVKESVEDVVKRWGGPFFIEFNRNWRKVMKEFTGVKVHLTMYGLHVDDVIEELKEKLKKGEDFMIIVGAEKVPREVYELADYNVAIGNQPHSEVAALAVLLDRLLEGKGLKKEFKGAKIKIVPQARGKKVVEVQGYAEQDKAEGKATPGKNWENSGFTGDNP | soluble
17 | MIKQTIVALLLSVGASSVFAAGTVKVFSNGSSEAKTLTGAEHLIDLVGQPRLANSWWPGAVISEELATAAALRQQQALLTRLAEQGADSSADDAAAINALRQQIQALKVTGRQKINLDPDIVRVAERGNPPLQGNYTLWVGPPPSTVTLFGLISRPGKQPFTPGRDVASYLSDQSLLSGADRSYAWVVYPDGRTQKAPVAYWNKRHVEPMPGSIIYVGLADSVWSETPDALNADILQTLTQRIPQ | not soluble
18 | MIKRFLEDTTDDGELSKFVKDFSGNASCHPPEAKTWASRPQVPEPRPQAPDLYDDDLEFRPPSRPQSSDNQQYFCAPAPLSPSARPRSPWGKLDPYDSSEDDKEYVGFATLPNQVHRKSVKKGFDFTLMVAGESGLGKSTLVNSLFLTDLYRDRKLLGAEERIMQTVEITKHAVDIEEKGVRLRLTIVDTPGFGDAVNNTECWKPVAEYIDQQFEQYFRDESGLNRKNIQDNRVHCCLYFISPFGHGLRPLDVEFMKALHQRVNIVPILAKADTLTPPEVDHKKRKIREEIEHFGIKIYQFPDCDSDEDEDFKLQDQALKESIPFAVIGSNTVVEARGRRVRGRLYPWGIVEVENPGHCDFVKLRTMLVRTHMQDLKDVTRETHYENYRAQCIQSMTRLVVKERNRNKLTRESGTDFPIPAVPPGTDPETEKLIREKDEELRRMQEMLHKIQKQMKENY | not soluble
19 | MIKRILKIWFIIGMYELSKYLTNELIIYLQSEDDIDTAPKDFAILDDQIDLNRSFRRQIENDIAKAFEDAFNSSEKEDNLEHHHHHH | not soluble
20 | MIKVDMTVDAKGLSCPMPIVRTKKAINELQPGQVLEVQATDKGSKADIKAWAESTGHQYLGTIEENGVLKHYIRKSAEHETRKETTFPHVVSNEELQEKLHDPDSFVLDVREPAEYAFGHIPGAVSIPLGELENRMAELPKDKTIYVVCRTGTRSDLAAQKLAEKGFDRVRNVIPGMSQWNGPLDSAQS | soluble
21 | MIKVEIKPSQAQFTTRSGVSRQGKPYSLNEQLCYIDLGNEYPVLVKVTLDEGQPAYAPGLYTVHLSSFKVGQFGSLMIDRLRLVPAK | soluble
22 | MILAILQARMSSTRLPGKVLMPLQRQPMIVRQIERVARSKRIDKLVVATSDRPEDDAIEAAVRREGIAVFRGSLDNVQQRFIGALDAHPADHVVRLTADCPLADPTLIDATIDLCLSKGADYVSNTPEGHAHPKGTDVEVMTAAALRRAAAEATTKEAFEHVTWDLWNQPQRWTCAWLPCFPDQGAVRWTVDRPDDYAFVAAVYDALYPANRAFTSDDIRAFVAGRPDLQDYGGDRRALEHHHHHH | not soluble
23 | MILDTDYITENGKPVIRVFKKENGEFKIEYDRTFEPYFYALLKDDSAIEDVKKVTAKRHGTVVKVKRAEKVQKKFLGRPIEVWKLYFNHPQDVPAIRDRIRAHPAVVDIYEYDIPFAKRYLIDKGLIPMEGDEELTMLAFAIATLYHEGEEFGTGPILMISYADGSEARVITWKKIDLPYVDVVSTEKEMIKRFLRVVREKDPDVLITYNGDNFDFAYLKKRCEELGIKFTLGRDGSEPKIQRMGDRFAVEVKGRIHFDLYPVIRRTINLPTYTLEAVYEAVFGKPKEKVYAEEIAQAWESGEGLERVARYSMEDAKVTYELGREFFPMEAQLSRLIGQSLWDVSRSSTGNLVEWFLLRKAYKRNELAPNKPDERELARRRGGYAGGYVKEPERGLWDNIVYLDFRSLYPSIIITHNVSPDTLNREGCKEYDVAPEVGHKFCKDFPGFIPSLLGDLLEERQKIKRKMKATVDPLEKKLLDYRQRAIKILANSFYGYYGYAKARWYCKECAESVTAWGREYIEMVIRELEEKFGFKVLYADTDGLHATIPGADAETVKKKAKEFLKYINPKLPGLLELEYEGFYVRGFFVTKKKYAVIDEEGKITTRGLEIVRRDWSEIAKETQARVLEAILKHGDVEEAVRIVKEVTEKLSKYEVPPEKLVIHEQITRDLRDYKATGPHVAVAKRLAARGVKIRPGTVISYIVLKGSGRIGDRAIPADEFDPTKHRYDAEYYIENQVLPAVERILKAFGYRKEDLRYQKTKQVGLGAWLKVKGKK | soluble
